Experimental data as given in publication PMC7249735.

Target: Maltose binding protein (MBP) (UniProt P0AEX9 27-396)
Assay: ELASA; 500 nM aptamer; PBS (137 mM NaCl, 2.7 mM KCl, 10 mM Na2HPO4, 1.8 mM KH2PO4, pH 7.4); ELASA 30 min at 4 C after 3% BSA block; sandwich capture in PBS, temperature not stated

B1: A-aptamer-ELASA (modified B11) (ssDNA)
DNA: TTCTTTTATTAGTTGATTTTTTTGATTTTGGCAGCTACTGCTTTGGGGGTGCTGAGGCGAAGGACGCAGATGAAGTCTC
modifications: 3' biotin
B1: no binding.
